Test results published in article PMC8254751 (Molecular cancer research : MCR, 2021).
“And” between values parts separate entries of the source, which are not always exact repeats. Identical values can stand only once.

T1: GST-BAP1-ULD (human, UniProt Q92560 601-729)
T1 sequence (looked up): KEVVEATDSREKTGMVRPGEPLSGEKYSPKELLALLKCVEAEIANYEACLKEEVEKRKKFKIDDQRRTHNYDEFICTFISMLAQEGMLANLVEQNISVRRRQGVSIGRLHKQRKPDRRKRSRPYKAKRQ

T2: Full-length His-BAP1 (Bv-His-BAP1-FL-WT) (human, UniProt Q92560 1-729)
T2 sequence (looked up): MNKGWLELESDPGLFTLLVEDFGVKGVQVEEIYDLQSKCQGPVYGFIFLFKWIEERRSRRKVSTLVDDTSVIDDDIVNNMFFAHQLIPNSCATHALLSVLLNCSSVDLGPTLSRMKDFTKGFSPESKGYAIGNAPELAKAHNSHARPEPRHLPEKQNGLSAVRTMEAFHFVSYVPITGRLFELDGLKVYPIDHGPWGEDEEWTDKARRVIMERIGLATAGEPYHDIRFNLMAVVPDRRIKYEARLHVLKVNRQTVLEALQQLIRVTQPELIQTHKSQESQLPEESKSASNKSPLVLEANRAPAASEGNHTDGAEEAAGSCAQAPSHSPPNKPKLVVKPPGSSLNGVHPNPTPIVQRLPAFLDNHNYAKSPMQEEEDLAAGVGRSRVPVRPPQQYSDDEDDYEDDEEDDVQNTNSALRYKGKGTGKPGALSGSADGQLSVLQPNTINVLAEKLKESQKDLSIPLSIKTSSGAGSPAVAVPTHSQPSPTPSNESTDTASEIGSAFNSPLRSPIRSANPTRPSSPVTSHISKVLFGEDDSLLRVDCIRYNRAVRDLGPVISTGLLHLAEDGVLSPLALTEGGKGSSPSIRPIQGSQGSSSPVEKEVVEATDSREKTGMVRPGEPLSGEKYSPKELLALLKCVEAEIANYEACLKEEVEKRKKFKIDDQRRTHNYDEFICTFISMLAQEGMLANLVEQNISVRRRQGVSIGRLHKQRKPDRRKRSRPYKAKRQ

B1: His-BAP1-ULD (601–729aa) (domain or fragment, human, UniProt Q92560 601-729, looked up)
chain: T1 sequence (looked up)
B2: GST-BAP1-UCH-WT (1–250 aa) (domain or fragment, human, UniProt Q92560 1-250, looked up)
chain: MNKGWLELESDPGLFTLLVEDFGVKGVQVEEIYDLQSKCQGPVYGFIFLFKWIEERRSRRKVSTLVDDTSVIDDDIVNNMFFAHQLIPNSCATHALLSVLLNCSSVDLGPTLSRMKDFTKGFSPESKGYAIGNAPELAKAHNSHARPEPRHLPEKQNGLSAVRTMEAFHFVSYVPITGRLFELDGLKVYPIDHGPWGEDEEWTDKARRVIMERIGLATAGEPYHDIRFNLMAVVPDRRIKYEARLHVLKV
B3: His-ASXL2-AB (261–381aa) (domain or fragment, human, UniProt Q76L83 261-381, looked up)
chain: MKRTKCADIDVETPDSILVNTNLRALINKHTFSVLPGDCQQRLLLLLPEVDRQVGPDGLMKLNGSALNNEFFTSAAQGWKERLSEGEFTPEMQVRIRQEIEKEKKVEPWKEQFFESYYGQS
B4: His-ULD/AB protein complex (pETDuet-1-His-BAP1-ULD+ASXL2-AB) (complex, human)
chain 1: T1 sequence (looked up)
chain 2: B3 chain

Tests used:
[1] = biological target: B3; experiment: ITC
[2] = biological target: B4; experiment: SPR
[3] = biological target: B1; experiment: ITC
[4] = biological target: T1, GST-BAP1-ULD; experiment: SPR
[5] = biological target: T2, Full-length His-BAP1 (Bv-His-BAP1-FL-WT); experiment: SPR

Binder: B1
dH [1]: -9.87 kcal/mol

Binder: B2
koff [2]: 0.044 s⁻¹

Binder: B3
Kd [3]: ~4260 nM
Kd [4]: 134 nM and 67 nM

Binder: B4
Kd [5]: 850 nM and 1910 nM
koff [5]: 0.033 s⁻¹
